Results published in patent US20190391146A1.

Biological target: Mycobacteria modified Low Density Lipoprotein (MtLDL) (human) (UniProt P04114)
Assay: sandwich ELISA, value told of the pair No. 6 with No. 8

B1: bivalent Fab No. 6 (HCVR SEQ ID NO: 3 / LCVR SEQ ID NO: 4) (Fab, V domains shown)
VH: EVQLLESGGGLVQPGGSLRLSCAASGFTFRGYYMSWVRQAPGKGLEWVSSISGFSSNTYYADSVKGRFTISRDNSKNTLYLQMNSLRAEDTAVYYCARVRYLAYAFDYWGQGTLVTVSS
VL: DIELTQPPSVSVSPGQTASITCSGDSLPDKRAYWYQQKPGQAPVLVIYGDSHRPSGIPERFSGSNSGNTATLTISGTQAEDEADYYCSSWGSRTWVFGGGTKLTVLG
  specific signal, fold above native LDL background: > 4 fold

B2: bivalent Fab No. 8 (HCVR SEQ ID NO: 5 / LCVR SEQ ID NO: 6) (Fab, V domains shown)
VH: QVQLVQSGAEVKKPGSSVKVSCKASGGTFSGYYISWVRQAPGQGLEWMGGIIPISGRANYAQKFQGRVTITADESTSTAYMELSSLRSEDTAVYYCARSRSYYHFDLWGQGTLVTVSS
VL: DIALTQPASVSGSPGQSITISCTGTSSDVGRYNSVSWYQQHPGKAPKLMIYRVSKRPSGVSNRFSGSKSGNTASLTISGLQAEDEADYYCQSWASLSNVVFGGGTKLTVLG
  specific signal, fold above native LDL background: > 4 fold
